Earlier results on four molecules are cited in US5866683A, “Isoelectric point markers for isoelectric focusing with fluorescence detection” (Laboratory of Molecular Biophotonics, priority 1995, dated 1999).

Values joined by “and” are separate entries in the source; they are usually repeats but may differ in a detail not shown here. Equal values may be shown once.

B1: trypsinogen (protein, UniProt P00760 18-246, looked up)
pro-form: VDDDDKIVGGYTCGANTVPYQVSLNSGYHFCGGSLINSQWVVSAAHCYKSGIQVRLGEDNINVVEGNEQFISASKSIVHPSYNSNTLNNDIMLIKLKSAASLNSRVASISLPTSCASAGTQCLISGWGNTKSSGTSYPDVLKCLKAPILSDSSCKSAYPGQITSNMFCAGYLEGGKDSCQGDSGGPVVCSGKLQGIVSWGSGCAQKNKPGVYTKVCNYVSWIKQTIASN
modifications: pro-form
notes: conventional protein pI marker
B2: equine myoglobin (protein, UniProt P68082 2-154, looked up)
Myoglobin: GLSDGEWQQVLNVWGKVEADIAGHGQEVLIRLFTGHPETLEKFDKFKHLKTEAEMKASEDLKKHGTVVLTALGGILKKKGHHEAELKPLAQSHATKHKIPIKYLEFISDAIIHVLHSKHPGDFGADAQGAMTKALELFRNDIAAKYKELGFQG
notes: as for B1
B3: amyloglucosidase (protein, UniProt P69328 25-640, looked up)
Glucoamylase: ATLDSWLSNEATVARTAILNNIGADGAWVSGADSGIVVASPSTDNPDYFYTWTRDSGLVLKTLVDLFRNGDTSLLSTIENYISAQAIVQGISNPSGDLSSGAGLGEPKFNVDETAYTGSWGRPQRDGPALRATAMIGFGQWLLDNGYTSTATDIVWPLVRNDLSYVAQYWNQTGYDLWEEVNGSSFFTIAVQHRALVEGSAFATAVGSSCSWCDSQAPEILCYLQSFWTGSFILANFDSSRSGKDANTLLGSIHTFDPEAACDDSTFQPCSPRALANHKEVVDSFRSIYTLNDGLSDSEAVAVGRYPEDTYYNGNPWFLCTLAAAEQLYDALYQWDKQGSLEVTDVSLDFFKALYSDAATGTYSSSSSTYSSIVDAVKTFADGFVSIVETHAASNGSMSEQYDKSDGEQLSARDLTWSYAALLTANNRRNSVVPASWGETSASSVPGTCAATSAIGTYSSVTVTSWPSIVATGGTTTTATPTGSGSVTSTSKTTATASKTSTSTSSTSCTTPTAVAVTFDLTATTTYGENIYLVGSISQLGDWETSDGIALSADKYTSSDPLWYVTVTLPAGESFEYKFIRIESDDSVEWESDPNREYTVPQACGTSTATVTDTWR
B4: lentilectin (protein, UniProt P02870 31-210; P02870 218-269, looked up)
Lectin beta chain: TETTSFSITKFSPDQKNLIFQGDGYTTKGKLTLTKAVKSTVGRALYSTPIHIWDRDTGNVANFVTSFTFVIDAPSSYNVADEFTFFIAPVDTKPQTGGGYLGVFNSKEYDKTSQTVAVEFDTFYNAAWDPSNKERHIGIDVNSIKSVNTKSWNLQNGERANVVIAFNAATNVLTVTLTYP
Lectin alpha chain: VTSYTLNEVVPLKDVVPEWVRIGFSATTGAEFAAHEVHSWSFHSELGGTSSS
notes: conventional protein pI marker, three pI's

For the series the following is noted: unlabeled protein.
For B1, the “pI (known) of conventional protein pI marker” value (from here on “pI (known)”) is given as 9.30.
As to B2, the “pI (known)” value was 7.00.
As to B3, the “pI (known)” value is reported as 3.50.
In the case of B4, the “pI (known)” value was 7.80 and 8.00 and 8.20.
